What was measured:
[1] = test system: His1 (position 1, -----HVD---); assay: NMR; details: 25 °C; none stated (0.1% DSS as shift standard); Non-deuterated peptide, 1 mM, free in solution
[2] = test system: His1 (position 1, -----HVD---); assay: Raman; details: 22 °C; not stated (no added salt apart from NaOH/HCl used for pH adjustment); none stated; C2-deuterated peptide H(C2-D)VD, about 10 mM, free in solution

## HVD tripeptide (Ac-His-Val-Asp-NH2), N-terminal fragment of a hydrogel-forming semenogelin I peptide (synthetic; sequence derived from Homo sapiens semenogelin I)
[1]
  pKa: 6.87 ± 0.03
[2]
  pKa: 6.82

— publication PMC6385126
